For 52 variants, abundance fitness results are on record in the Human Domainome abundance scans (Beltran et al. 2025).

± gives the uncertainty stated by the source.

First the molecules themselves.
B1: Cell division cycle and apoptosis regulator protein 1, residues 625 to 674; numbered along this chain, Q8IX12 (parent)
chain: ISTPTHWSKLDPKTMKVNDLRKELESRALSSKGLKSQLIARLTKQLKVEE

In this data set the parent is B1. Briefly: abundance fitness (aPCA) (normalised: wild type 0, dead -1); higher = more abundant; growth selection in yeast, the domain comes from the species named. The conditions noted are these: Homo sapiens.
In the case of ISTPTHWSKLNPKTMKVNDLRKELESRALSSKGLKSQLIARLTKQLKVEE, the abundance fitness came out at 0.054 ± 0.051. Regarding ISTPTHWSKLLPKTMKVNDLRKELESRALSSKGLKSQLIARLTKQLKVEE, the abundance fitness was -0.054 ± 0.033.

Regarding ISTPTHWSKLVPKTMKVNDLRKELESRALSSKGLKSQLIARLTKQLKVEE, the abundance fitness is -0.038 ± 0.042. For ISTPTHWSKLIPKTMKVNDLRKELESRALSSKGLKSQLIARLTKQLKVEE, the abundance fitness was 0.066 ± 0.034. For the variant ISTPTHWSTLDPKTMKVNDLRKELESRALSSKGLKSQLIARLTKQLKVEE, the abundance fitness was -0.125 ± 0.055. In the case of ISTPTHWSWLDPKTMKVNDLRKELESRALSSKGLKSQLIARLTKQLKVEE, the abundance fitness is -0.235 ± 0.052. The value for ISTPTHWSSLDPKTMKVNDLRKELESRALSSKGLKSQLIARLTKQLKVEE was -0.166 ± 0.039; that for ISTPTHWSPLDPKTMKVNDLRKELESRALSSKGLKSQLIARLTKQLKVEE was -0.576 ± 0.057. For the variant ISTPTHWSQLDPKTMKVNDLRKELESRALSSKGLKSQLIARLTKQLKVEE, the abundance fitness worked out at 0.04 ± 0.043. With ISTPTHWSMLDPKTMKVNDLRKELESRALSSKGLKSQLIARLTKQLKVEE, the abundance fitness is -0.077 ± 0.044. On to ISTPTHWSRLDPKTMKVNDLRKELESRALSSKGLKSQLIARLTKQLKVEE, for which the abundance fitness amounted to 0.009 ± 0.038. For the variant ISTPTHWSYLDPKTMKVNDLRKELESRALSSKGLKSQLIARLTKQLKVEE, the abundance fitness is -0.158 ± 0.049. In the case of ISTPTHWSLLDPKTMKVNDLRKELESRALSSKGLKSQLIARLTKQLKVEE, the abundance fitness was -0.066 ± 0.031. The value for ISTPTHWSVLDPKTMKVNDLRKELESRALSSKGLKSQLIARLTKQLKVEE was -0.129 ± 0.031.

For the variant ISTPTHWSNLDPKTMKVNDLRKELESRALSSKGLKSQLIARLTKQLKVEE, the abundance fitness was -0.136 ± 0.051.

As to ISTPTHWSHLDPKTMKVNDLRKELESRALSSKGLKSQLIARLTKQLKVEE, the abundance fitness is -0.091 ± 0.049. In the case of ISTPTHWSILDPKTMKVNDLRKELESRALSSKGLKSQLIARLTKQLKVEE, the abundance fitness is -0.254 ± 0.072. ISTPTHWSKLDPKYMKVNDLRKELESRALSSKGLKSQLIARLTKQLKVEE: the abundance fitness was -0.05 ± 0.061. For the variant ISTPTHWSKLDPKMMKVNDLRKELESRALSSKGLKSQLIARLTKQLKVEE, the abundance fitness is -0.013 ± 0.044. Turning to ISTPTHWSKLDPKLMKVNDLRKELESRALSSKGLKSQLIARLTKQLKVEE, the abundance fitness is -0.131 ± 0.047. Take ISTPTHWSKLDPKVMKVNDLRKELESRALSSKGLKSQLIARLTKQLKVEE: the abundance fitness was -0.029 ± 0.033. The value for ISTPTHWSKLDPKHMKVNDLRKELESRALSSKGLKSQLIARLTKQLKVEE was 0.135 ± 0.044. In the case of ISTPTHWSKLDPKIMKVNDLRKELESRALSSKGLKSQLIARLTKQLKVEE, the abundance fitness amounted to 0.007 ± 0.039. ISTPTHWSKLDPKSMKVNDLRKELESRALSSKGLKSQLIARLTKQLKVEE: the abundance fitness is -0.005 ± 0.046.

In the case of ISTPTHWSKLDPKPMKVNDLRKELESRALSSKGLKSQLIARLTKQLKVEE, the abundance fitness was -0.798 ± 0.079. As for ISTPTHWSKLDPKFMKVNDLRKELESRALSSKGLKSQLIARLTKQLKVEE, the abundance fitness is -0.204 ± 0.063. On to ISTPTHWSKLDPKEMKVNDLRKELESRALSSKGLKSQLIARLTKQLKVEE, for which the abundance fitness was -0.011 ± 0.034. For the variant ISTPTHWSKLDPKAMKVNDLRKELESRALSSKGLKSQLIARLTKQLKVEE, the abundance fitness was -0.019 ± 0.033.

As for ISTPTHWSKLDPKRMKVNDLRKELESRALSSKGLKSQLIARLTKQLKVEE, the abundance fitness was determined as 0.178 ± 0.034. On to ISTPTHWSKLDPKKMKVNDLRKELESRALSSKGLKSQLIARLTKQLKVEE, for which the abundance fitness was 0.257 ± 0.041.

As for ISTPTHWSKLDPKNMKVNDLRKELESRALSSKGLKSQLIARLTKQLKVEE, the abundance fitness was determined as 0.038 ± 0.065. As for ISTPTHWSKLDPKDMKVNDLRKELESRALSSKGLKSQLIARLTKQLKVEE, the abundance fitness is -0.061 ± 0.037. Consider ISTPTHWSKLDPKQMKVNDLRKELESRALSSKGLKSQLIARLTKQLKVEE, for which the abundance fitness was -0.022 ± 0.063. The value for ISTPTHWSKLDPKCMKVNDLRKELESRALSSKGLKSQLIARLTKQLKVEE was -0.074 ± 0.043; that for ISTPTHWSKLDTKTMKVNDLRKELESRALSSKGLKSQLIARLTKQLKVEE was -0.207 ± 0.04; that for ISTPTHWSKLDAKTMKVNDLRKELESRALSSKGLKSQLIARLTKQLKVEE was -0.142 ± 0.05. The value for ISTPTHWSKLDWKTMKVNDLRKELESRALSSKGLKSQLIARLTKQLKVEE was -0.488 ± 0.036; that for ISTPTHWSKLDEKTMKVNDLRKELESRALSSKGLKSQLIARLTKQLKVEE was -0.754 ± 0.089.

Consider ISTPTHWSKLDFKTMKVNDLRKELESRALSSKGLKSQLIARLTKQLKVEE, for which the abundance fitness was -0.762 ± 0.2. As to ISTPTHWSKLDSKTMKVNDLRKELESRALSSKGLKSQLIARLTKQLKVEE, the abundance fitness is -0.665 ± 0.047.

As for ISTPTHWSKLDHKTMKVNDLRKELESRALSSKGLKSQLIARLTKQLKVEE, the abundance fitness is -0.865 ± 0.049. For ISTPTHWSKLDKKTMKVNDLRKELESRALSSKGLKSQLIARLTKQLKVEE, the abundance fitness is -0.875 ± 0.075. For ISTPTHWSKLDDKTMKVNDLRKELESRALSSKGLKSQLIARLTKQLKVEE, the abundance fitness was -1.02 ± 0.25. In the case of ISTPTHWSKLDRKTMKVNDLRKELESRALSSKGLKSQLIARLTKQLKVEE, the abundance fitness is -0.89 ± 0.04. The value for ISTPTHWSKLDCKTMKVNDLRKELESRALSSKGLKSQLIARLTKQLKVEE was -0.223 ± 0.034; that for ISTPTHWSKLDMKTMKVNDLRKELESRALSSKGLKSQLIARLTKQLKVEE was -0.141 ± 0.059. As for ISTPTHWSKLDIKTMKVNDLRKELESRALSSKGLKSQLIARLTKQLKVEE, the abundance fitness is -0.324 ± 0.069. In the case of ISTPTHWSKLDLKTMKVNDLRKELESRALSSKGLKSQLIARLTKQLKVEE, the abundance fitness was -0.189 ± 0.041. The value for ISTPTHWSKLDYKTMKVNDLRKELESRALSSKGLKSQLIARLTKQLKVEE was -0.74 ± 0.068. Regarding ISTPTHWSKLDNKTMKVNDLRKELESRALSSKGLKSQLIARLTKQLKVEE, the abundance fitness was -0.965 ± 0.17. For ISTPTHWSKLDGKTMKVNDLRKELESRALSSKGLKSQLIARLTKQLKVEE, the abundance fitness is -0.655 ± 0.035.

In the case of ISTPTHWSKLDQKTMKVNDLRKELESRALSSKGLKSQLIARLTKQLKVEE, the abundance fitness is -0.749 ± 0.062.
